Reference: publication PMC7195446, “The RhHB1/RhLOX4 module affects the dehydration tolerance of rose flowers (Rosa hybrida) by fine-tuning jasmonic acid levels”

Molecular target: GST-RhHB1 (Rosa hybrida, UniProt A0A096YDU1 1-243)
Test: EMSA; 25 pM probe (so in the source), 3 ug protein; signal weakened by 10x and 100x unlabeled probe; Pierce EMSA kit, per manufacturer's instructions; buffer, salt, pH and temperature not given
Conditions: protein: recombinant; tags: GST (N-terminal, pGEX-2T); chain copies: 2; label: biotin (5' of S3); blunt

Chain of GST-RhHB1 (A0A096YDU1 entry or part of it): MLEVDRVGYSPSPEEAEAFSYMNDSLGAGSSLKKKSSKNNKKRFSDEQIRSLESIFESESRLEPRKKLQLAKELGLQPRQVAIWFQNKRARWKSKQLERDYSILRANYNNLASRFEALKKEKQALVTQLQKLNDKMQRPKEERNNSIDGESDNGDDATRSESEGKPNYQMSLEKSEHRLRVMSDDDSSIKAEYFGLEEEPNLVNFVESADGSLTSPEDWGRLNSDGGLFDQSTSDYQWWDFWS

B1: RhLOX4 promoter probe (-1270 to -1303) (dsDNA)
DNA 1: AAGAGAATATTTTGAAATAATATTAGGAGTCTCT
DNA 2: AGAGACTCCTAATATTATTTCAAAATATTCTCTT
binding result: binds
